Reference: patent publication US7820795B2, “Lactobacillus fermentum N-desoxyribosyl transferases and the use thereof for enzymatic synthesis of 2′, 3′—didesoxynucleosides and 2′,3′- didehydro-2′,3′- didesoxynucleosides” (Institut Pasteur, priority 2004, dated 2010)
Where a chain is given by its changes, count along the chain named. In names and notes the source's numbering stands.

Experiments:
[1] = tested on: HIV (human immunodeficiency virus); settings: cited from earlier work
[2] = target: T1, Lactobacillus fermentum N-deoxyribosyl transferase (NTD, LF), native/wild type, SEQ ID No. 2 (Limosilactobacillus fermentum, UniProt Q6YNI5); test: Enzymatic activity tests (dT+C, ddT+C and d4T+C reactions), native enzyme LF; type: biochemical; settings: deoxyribosyl donor + C (cytosine)
T1 construct: crude extract or purified
T1 sequence (Q6YNI5 1-168): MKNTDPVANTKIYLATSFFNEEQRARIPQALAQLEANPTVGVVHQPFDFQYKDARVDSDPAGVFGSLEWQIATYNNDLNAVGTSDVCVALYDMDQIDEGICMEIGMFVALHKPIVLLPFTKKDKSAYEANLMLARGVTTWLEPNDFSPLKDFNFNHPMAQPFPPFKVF
Procedure: (§1) 50 μl of enzymatic extract is added to 200 μl of 100 mM citrate buffer, pH 6.44, in the presence of 3 mM ddU or dU final and of 1 mM C final for the strain PAK9, the whole is incubated at 37° C. The progress of the reaction is monitored by TLC (silica; eluent: MeOH—CH2Cl2 (20/80)). […] The disappearance of the substrates and the formation of the products were also quantified by HPLC analysis. The different products are separated by analytical HPLC with a reversed-phase column (100-5C18) using a flow rate of 1 ml/min and a linear gradient of 5-25% CH3CN in a 10 mM triethyl ammonium acetate buffer at pH 7.5 for 20 minutes.
(§2) were used as primer in an amplification reaction under standard conditions using the ntd gene of L. fermentum cloned in pSU19 (pLF6) as DNA matrix. The amplification product was digested by the restriction enzymes Nde1 and BamH1 for 2 hours at 37° C., purified on agarose gel and inserted into the plasmid pET24a digested by the same enzymes then the ligation mixture is used to transform the strain β 2033. The plasmid DNA from the colonies was prepared and digested by the enzymes Nde1 and BamH1. […]
(§3) The cells are then centrifuged for 15′ at 4000 rpm at 4° C., washed in 50 ml of phosphate buffer then the pellet obtained after centrifugation is preserved overnight at −20° C. […] The fractions are then analyzed by SDS-PAGE gel and the enzymatic activity determined. […] The protein concentration is determined by measuring the OD at 280 nm. […]
(§4) The enzymatic activities of the native and mutant N-deoxyribosyl transferases of L. leichmannii (LL and LL G9S) and of L. fermentum (LF and LFA15T) in the exchange reactions dT+C ? dC+T, ddT+C ? ddC+T and d4T+C ? d4C+T were evaluated starting from crude extracts or purified proteins.
(§5) These different values were measured according to the protocol described in the literature [P A Kaminski (2002) “Functional cloning, heterologous expression and purification of two different N-deoxyribosyl transferases from Lactobacillus helveticus” J. Biol. Chem; vol. […]

[3] = target: T2, Lactobacillus fermentum N-deoxyribosyl transferase (NTD) variant LFA15T, mutation A15T, SEQ ID No. 4 (Limosilactobacillus fermentum, UniProt Q6YNI5, A15T); test: Enzymatic activity tests (dT+C, ddT+C and d4T+C reactions), mutated enzyme LFA15T; type: biochemical; settings: mutant LFA15T; deoxyribosyl donor + C (cytosine)
T2 construct: crude extract or purified
T2 sequence (Q6YNI5 1-168 A15T): T1 sequence (Q6YNI5 1-168) with A15T
Procedure: (§6) The sequencing of the plasmids present in the selected transformants of PAK 9 made it possible to identify a mutation in the sequence (ntd) having the effect of substituting a residue T for the residue A in position 15 in the corresponding protein sequence (SEQ ID No. 2) (mutation called A15T).
50 μl of enzymatic extract is added to 200 μl of 100 mM citrate buffer, pH 6.44, in the presence of 3 mM ddU or dU final and of 1 mM C final for the strain PAK9, the whole is incubated at 37° C. The progress of the reaction is monitored by TLC (silica; eluent: MeOH—CH2Cl2 (20/80)). […] The disappearance of the substrates and the formation of the products were also quantified by HPLC analysis. […]
as §3
The enzymatic activities of the native and mutant N-deoxyribosyl transferases of L. leichmannii (LL and LL G9S) and of L. fermentum (LF and LFA15T) in the exchange reactions dT+C ? dC+T, ddT+C ? ddC+T and d4T+C ? d4C+T were evaluated starting from crude extracts or purified proteins. […]

[4] = exchange reaction dT + C (transfer of deoxyribose), specific activity of N-deoxyribosyl transferases; type: biochemical; settings: for specific activity, dT + C: relative, 100% = specific activity of NTD of L. leichmannii (LL) in dT + C, crude extracts or purified proteins
Procedure: (§7) The cells are then centrifuged at 4000 rpm for 30 minutes at 4° C., the pellet is resuspended in 10 ml of phosphate buffer (Na2HP04+NaH2PO4) at 50 mM (pH=7.5). After centrifugation, the pellet is resuspended in 1 ml of the same buffer. The cells, preserved in ice, are then subjected to three cycles of 30 s of sonication and 30 s of rest. After centrifugation at 12000 rpm for 2×15 minutes at 4° C., the supernatants are recovered and stored at −20° C.
as §1
(§8) The cells are then centrifuged for 15′ at 4000 rpm at 4° C., washed in 50 ml of phosphate buffer then the pellet obtained after centrifugation is preserved overnight at −20° C. The bacterial pellet resuspended in 20 ml of phosphate buffer is then lysed by passage through a French press at 14000 psi. The lysate is centrifuged for 90′ at 50,000 rpm. The supernatant containing the soluble proteins is then precipitated with ammonium sulphate (40% saturation). […] The fractions are then analyzed by SDS-PAGE gel and the enzymatic activity determined. […] The protein concentration is determined by measuring the OD at 280 nm. […]
as §4

[5] = exchange reaction ddT + C (transfer of dideoxyribose), specific activity of N-deoxyribosyl transferases; type: biochemical; settings: for specific activity, ddT + C: relative, 100% = specific activity of NTD of L. leichmannii (LL) in dT + C, crude extracts or purified proteins
Procedure: as §7, §1, §8, §4

[6] = exchange reaction d4T + C (transfer of didehydroribose), specific activity of N-deoxyribosyl transferases; type: biochemical; settings: for specific activity, d4T + C: relative, 100% = specific activity of NTD of L. leichmannii (LL) in dT + C, crude extracts or purified proteins
Procedure: as §7, §1, §8, §4

[7] = substrate: Cc1cn([C@H]2C=C[C@@H](CO)O2)c(=O)[nH]c1=O; test: Enzymatic activity tests (dT+C, ddT+C and d4T+C reactions), native enzyme LF; type: biochemical, Lactobacillus fermentum; settings: other: native LF; deoxyribosyl donor + C (cytosine); 37.0 °C
Procedure: as §1
(§9) were used as primer in an amplification reaction under standard conditions using the ntd gene of L. fermentum cloned in pSU19 (pLF6) as DNA matrix. The amplification product was digested by the restriction enzymes Nde1 and BamH1 for 2 hours at 37° C., purified on agarose gel and inserted into the plasmid pET24a digested by the same enzymes then the ligation mixture is used to transform the strain β 2033. The plasmid DNA from the colonies was prepared and digested by the enzymes Nde1 and BamH1. Those, the sequence of which was correct, were used to transform the strain BL21 (DE3)/plysS (Novagen). The plasmid DNA of the mutant pSU19NLFA15T selected previously was prepared then digested by the enzymes Nde1 and BamH1. The corresponding fragment Nde1-BamH1 was then inserted into the plasmid pET24a digested by the same enzymes in order to produce the expression plasmid pETLFA15T useful to the expression of the mutated protein. A strain of E. coli transformed using the plasmid pETLFA15T was deposited at the CNCM (INSTITUT PASTEUR, 25 rue du Docteur Roux, F-75724 PARIS Cedex 15) on 22 Mar. 2004 under accession number I-3192. The overproduction of the two N-deoxyribosyl transferases, native and mutated, was obtained from cultures of this strain in 500 ml of LB medium supplemented with Km and Cm. These cultures were induced at an OD600=0.6 by the addition of IPTG (0.4 mM), the incubation being continued for 2 hours 30 minutes at 37° C.
(§10) The cells are then centrifuged for 15′ at 4000 rpm at 4° C., washed in 50 ml of phosphate buffer then the pellet obtained after centrifugation is preserved overnight at −20° C. The bacterial pellet resuspended in 20 ml of phosphate buffer is then lysed by passage through a French press at 14000 psi. The lysate is centrifuged for 90′ at 50,000 rpm. The supernatant containing the soluble proteins is then precipitated with ammonium sulphate (40% saturation). The precipitate obtained after centrifugation at 13900 rpm (20,000 g) for 30′ at 4° C. is resuspended in 1 ml of 100 mM phosphate buffer, pH 7.5, 1.5 M NaCl, then deposited on a Sephacryl S200 gel filtration column (Amersham-Pharmacia). The fractions are then analyzed by SDS-PAGE gel and the enzymatic activity determined. […] The protein concentration is determined by measuring the OD at 280 nm.
(§11) The measurement of the enzymatic activities is carried out as described in paragraph 4.2.
as §4
(§12) These different values were measured according to the protocol described in the literature [P A Kaminski (2002) “Functional cloning, heterologous expression and purification of two different N-deoxyribosyl transferases from Lactobacillus helveticus” J. Biol. Chem; vol. 277; 14400-14407]. […] The activities are increased respectively by 60% and 54%.

[8] = substrate: Cc1cn([C@H]2CC[C@@H](CO)O2)c(=O)[nH]c1=O; test: as above; type: biochemical, Lactobacillus fermentum; settings: other: native LF; deoxyribosyl donor + C (cytosine); 37.0 °C
Procedure: as §1, §9, §10, §11, §4, §12

[9] = substrate: Cc1cn([C@H]2C[C@H](O)[C@@H](CO)O2)c(=O)[nH]c1=O; test: as above; type: biochemical, Lactobacillus fermentum; settings: other: native LF; deoxyribosyl donor + C (cytosine); 37.0 °C
Procedure: as §1, §9, §10, §11, §4, §12

[10] = enzymatic activity test (kinetic constants), ddT+C reaction; type: biochemical
Procedure: as §12

[11] = enzymatic activity test (kinetic constants), d4T+C reaction; type: biochemical
Procedure: as §12

[12] = substrate: Cc1cn([C@H]2CC[C@@H](CO)O2)c(=O)[nH]c1=O; test: Enzymatic activity tests (dT+C, ddT+C and d4T+C reactions), mutated enzyme LFA15T; type: biochemical, Lactobacillus fermentum; settings: other: mutant LFA15T; deoxyribosyl donor + C (cytosine); 37.0 °C
Procedure: as §6, §1
as §2, with “BamH1. Those, the sequence of which was correct, were used to transform the strain BL21 (DE3)/plysS (Novagen). The plasmid DNA of the mutant pSU19NLFA15T selected previously was prepared then digested by the enzymes Nde1 and BamH1. The corresponding fragment Nde1-BamH1 was then inserted into the plasmid pET24a digested by the same enzymes in order to produce the expression plasmid pETLFA15T useful to the expression of the mutated protein.” for “BamH1.”
as §3, §4, §5

[13] = substrate: Cc1cn([C@H]2C[C@H](O)[C@@H](CO)O2)c(=O)[nH]c1=O; test: as above; type: biochemical, Lactobacillus fermentum; settings: other: mutant LFA15T; deoxyribosyl donor + C (cytosine); 37.0 °C
Procedure: as §6, §1
as §2, with “BamH1. Those, the sequence of which was correct, were used to transform the strain BL21 (DE3)/plysS (Novagen). The plasmid DNA of the mutant pSU19NLFA15T selected previously was prepared then digested by the enzymes Nde1 and BamH1. The corresponding fragment Nde1-BamH1 was then inserted into the plasmid pET24a digested by the same enzymes in order to produce the expression plasmid pETLFA15T useful to the expression of the mutated protein.” for “BamH1.”
as §3, §4, §5

[14] = mutant LFA15T versus native enzyme LF
[15] = catalytic effectiveness Kcat/Km
[16] = mutated enzyme versus native enzyme

OC[C@@H]1CC[C@H](n2cnc3c(O)ncnc32)O1 [ddl, 2′,3′-dideoxyinosine]
inhibition of replication of HIV [1]: effectively inhibit the replication of HIV

Cc1cn([C@H]2C[C@H](O)[C@@H](CO)O2)c(=O)[nH]c1=O [dT]
Kcat [2]: 0.665 µmol/s/µg
Kcat [3]: 0.242 µmol/s/µg

Cc1cn([C@H]2CC[C@@H](CO)O2)c(=O)[nH]c1=O [ddT]
Kcat [2]: 0.038 µmol/s/µg
Kcat [3]: 0.156 µmol/s/µg

Cc1cn([C@H]2C=C[C@@H](CO)O2)c(=O)[nH]c1=O [d4T, reference compound]
Kcat [2]: 0.56 µmol/s/µg

Nc1ncnc2c1ncn2[C@H]1CC[C@@H](CO)O1 [ddA, 2′,3′-dideoxyadenosine]
inhibition of replication of HIV [1]: effectively inhibit the replication of HIV

B1: Lactobacillus fermentum N-deoxyribosyl transferase (NTD, LF), native/wild type, SEQ ID No. 2 (Limosilactobacillus fermentum) (protein)
chain: T1 sequence (Q6YNI5 1-168)
notes: crude extract or purified
specific activity, dT + C [4]: 76.5%
specific activity, ddT + C [5]: 0.9%
specific activity, d4T + C [6]: 2.1%
Km [7]: 1250 µM
Vmax [7]: 24 µmol/s
Km [8]: 80 µM
Vmax [8]: 5.7 µmol/s
Km [9]: 124 µM
Vmax [9]: 6.65 µmol/s

B2: Lactobacillus fermentum N-deoxyribosyl transferase (NTD) variant LFA15T, mutation A15T, SEQ ID No. 4 (Limosilactobacillus fermentum; A15T) (protein)
chain: T1 sequence (Q6YNI5 1-168) with A15T
notes: crude extract or purified
factor by which activity is reduced, transfer of deoxyribose [4, 14]: 7
specific activity, dT + C [4]: 10.7%
factor by which activity is increased, transfer of dideoxyribose [5, 14]: 3
specific activity, ddT + C [5]: 2.5%
times more effective than native enzyme LF, ddT+X exchange [10, 15]: 60 times
increase of catalytic activity on ddT [10, 16]: 54%
factor by which activity is increased, transfer of didehydroribose [6, 14]: 35
specific activity, d4T + C [6]: 73.5%
times more effective than native enzyme LF, d4T+X exchange [11, 15]: 7.5 times
increase of catalytic activity on d4T [11, 16]: 60%
Km [12]: 53 µM
Vmax [12]: 7.8 µmol/s
Km [13]: 371 µM
Vmax [13]: 9.7 µmol/s
